Results on three molecules are retold here after article PMC6141180, “The TAB1-p38α complex aggravates myocardial injury and can be targeted by small molecules” (JCI Insight, 2018).

fluorescein = fluorescein label (on the lysine ε-amine)

The assay deals with T1, p38α (MAPK14), nonphosphorylated (mouse, UniProt P47811 1-360).
T1 construct: mouse p38α (MAPK14); Also used as the target of the functional rows on co-expressed p38α (E. coli pETDuet-1 first cloning site; HEK293 plasmid not described); source: E. coli Rosetta II (pETDuet-1), purified
Put plainly: fluorescence polarisation; competition: unlabeled peptide titrated into 2 nM fluorescein-labeled MKK3b peptide and 10 μM p38α; 50 mM HEPES pH 7.4, 10 mM MgCl2, 1 mM Chaps, 1 mM DTT, 1% DMSO; ambient temperature, 20 minutes. To be noted: both partners purified. For orientation: Polarisation of emitted light reports the rotation of a fluorescent probe.

T1 sequence (P47811 whole entry): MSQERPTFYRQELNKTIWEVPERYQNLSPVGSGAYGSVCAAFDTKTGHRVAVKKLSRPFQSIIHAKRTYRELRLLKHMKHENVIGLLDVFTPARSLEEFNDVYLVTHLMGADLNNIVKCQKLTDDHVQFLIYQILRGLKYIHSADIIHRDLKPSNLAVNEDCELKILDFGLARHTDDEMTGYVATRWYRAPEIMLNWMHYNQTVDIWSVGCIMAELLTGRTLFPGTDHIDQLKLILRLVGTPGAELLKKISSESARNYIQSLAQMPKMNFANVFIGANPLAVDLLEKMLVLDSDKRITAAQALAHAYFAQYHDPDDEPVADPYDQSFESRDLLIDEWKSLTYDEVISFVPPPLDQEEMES

B1: MKK3b peptide, unlabeled (peptide)
peptide: Ac-GKSKRKKDLRISCMSKP-NH2
notes: stretch of MKK3b, the most abundant splice variant of MAP2K3; also called unlabeled MKK3b
Consider B1, for which the binding result is listed as “binds”.

B2: fluorescein-labeled MKK3b peptide (peptide)
peptide: Ac-GKSKRKKDLRISCMSKPK(fluorescein)-NH2
notes: stretch of MKK3b, the most abundant splice variant of MAP2K3; added C-terminal lysine that carries the fluorescein; also called C-terminal labelled MKK3b peptide
For the molecule B2, the binding result is listed as “binds”.
The value for Ac-RVYPVSVPYSSAQSTSKTSVTLSLVMPSQ-NH2 (also called TAB-1 peptide; TAB1 peptide) [TAB1 (residues 384–412) peptide] was “binds”.
